Experimental data from paper PMC6414520, “CryoEM structure of adenovirus type 3 fibre with desmoglein 2 shows an unusual mode of receptor engagement” (Nature Communications, 2019).

B1: human adenovirus type 3 fibre knob (HAd3K), fibre residues 124-319, co-expressed with DSG2 EC2-EC3 (domain or fragment)
chain: NSIALKNNTLWTGPKPEANCIIEYGKQNPDSKLTLILVKNGGIVNGYVTLMGASDYVNTLFKNKNVSINVELYFDATGHILPDSSSLKTDLELKYKQTADFSARGFMPSTTAYPFVLPNAGTHNENYIFGQCYYKASDGALFPLEVTVMLNKRLPDSRTSYVMTFLWSLNAGLAPETTQATLITSPFTFSYIREDD
notes: fibre protein of human adenovirus type 3, knob, fibre residues 124-319; Trimer; also called HAd3 fibre knob; HAdK3; source: E. coli Rosetta(DE3)pLysS, pETDuet, co-expressed with EC2-EC3, complex purified (Ni-NTA, SEC)

Tests used:
[1] = biological target: human adenovirus type 3 fibre knob (HAd3K), fibre residues 124-319, co-expressed with DSG2 EC2-EC3 (human adenovirus type 3) (UniProt P04501); test: cryo-EM structure; complex co-expressed in E. coli and co-purified (Ni-NTA, SEC); 150 mM NaCl, 3 mM CaCl2, 10 mM Tris-Cl pH 8.0; Volta phase plate; particles with one or two EC2-EC3 modules per knob trimer sorted by classification
[2] = biological target: the molecule itself; test: as above

| Molecule | stoichiometry N (DSG2 per knob trimer) [1] | stoichiometry N (receptor per knob trimer) [1] | stoichiometry N [2] |
| --- | --- | --- | --- |
| human desmoglein 2 EC2-EC3 domains (DSG2 residues 100-337), co-expressed with HAd3K in E. coli (domain or fragment) | 2 | 1 | – |
| B1 | – | – | 3 |
